Key:
Experiment in all cases: pull-down
His-tagged STX7 (1-236) = target: T1, His-tagged STX7 (1-236) (human, UniProt O15400 1-236)
T1 sequence: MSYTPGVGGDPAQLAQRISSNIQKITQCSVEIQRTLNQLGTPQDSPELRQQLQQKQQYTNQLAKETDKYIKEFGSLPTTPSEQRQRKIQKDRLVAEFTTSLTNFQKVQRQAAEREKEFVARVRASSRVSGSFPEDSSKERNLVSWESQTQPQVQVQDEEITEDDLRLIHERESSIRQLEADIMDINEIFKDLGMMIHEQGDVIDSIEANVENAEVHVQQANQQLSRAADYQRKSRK

His-tagged STX8 (1-210) = target: T2, His-tagged STX8 (1-210) (human, UniProt Q9UNK0 1-210)
T2 sequence: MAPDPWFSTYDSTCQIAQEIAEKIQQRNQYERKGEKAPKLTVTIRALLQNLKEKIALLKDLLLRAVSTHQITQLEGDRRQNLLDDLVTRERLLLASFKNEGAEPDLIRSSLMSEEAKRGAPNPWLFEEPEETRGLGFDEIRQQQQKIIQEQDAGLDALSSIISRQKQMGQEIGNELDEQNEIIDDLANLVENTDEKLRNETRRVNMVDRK

His-tagged VTI1B (1-204) = target: T3, His-tagged VTI1B (1-204) (human, UniProt Q9UEU0 1-204)
T3 sequence: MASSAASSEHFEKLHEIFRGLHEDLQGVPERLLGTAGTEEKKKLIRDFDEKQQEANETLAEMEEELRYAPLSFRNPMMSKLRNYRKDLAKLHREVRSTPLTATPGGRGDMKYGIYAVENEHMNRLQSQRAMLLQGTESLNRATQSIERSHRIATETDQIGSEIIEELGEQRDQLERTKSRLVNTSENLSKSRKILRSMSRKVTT

Measured: binding result

B1: GST-tagged VAMP4 (1-115) (domain or fragment)
chain: MPPKFKRHLNDDDVTGSVKSERRNLLEDDSDEEEDFFLRGPSGPRFGPRNDKIKHVQNQVDEVIDVMQENITKVIERGERLDELQDKSESLSDNATAFSNRSKQLRRQMWWRGCK
binds: all assays above
